Test results: the supplement of paper PMC5998384

Tests used:
HeLa Kyoto [1] = assay: melting temperature (median over replicates), in situ; higher = more thermally stable
HeLa Kyoto [2] = assay: solubility change mitosis vs G1/S (difference of NP-40 vs SDS log2 ratios) (log2 ratio difference); higher = more soluble in mitosis
HeLa Kyoto [3] = assay: thermal stability score vs G1/S (z-score of summed log2 fold changes over temperatures); higher = more thermally stable than in G1/S
HeLa Kyoto [4] = assay: solubility in G1/S (NP-40 vs SDS abundance) (log2 ratio); higher = more soluble; details: cell cycle stage: G1/S
[5] = cell cycle stage: early G1 (4.5 h after nocodazole release)
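For melting temperature (median over replicates), in situ in this document: HeLa Kyoto cells synchronized by double thymidine or nocodazole block, proteins quantified by TMT10plex mass spectrometry, three independent biological replicates.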
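For solubility change mitosis vs G1/S (difference of NP-40 vs SDS log2 ratios) in this document: synchronized HeLa Kyoto cells (double thymidine block for G1/S, nocodazole release for mitosis), protein amounts in NP-40 versus SDS lysates quantified by mass spectrometry, three biological replicates.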
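For solubility in G1/S (NP-40 vs SDS abundance) in this document: HeLa Kyoto cells arrested at G1/S by double thymidine block, proteins quantified by TMT10plex mass spectrometry in mild NP-40 versus SDS extracts, three biological replicates.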
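For thermal stability score vs G1/S (z-score of summed log2 fold changes over temperatures) in this document: synchronized HeLa Kyoto cells, proteins quantified by TMT10plex mass spectrometry, three biological replicates, mitosis taken 0.5 h after nocodazole release, G1/S directly after double thymidine block.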

Sequence	melting temperature (HeLa Kyoto [1]; cell cycle stage: G1/S)	melting temperature (HeLa Kyoto [1]; cell cycle stage: mitosis)	solubility change mitosis (log2) (HeLa Kyoto [2])	thermal stability score (HeLa Kyoto [3]; [5])	thermal stability score (HeLa Kyoto [3]; cell cycle stage: mitosis)	solubility in G1/S (log2) (HeLa Kyoto [4])
MVLSQRQRDELNRAIADYLRSNGYEEAYSVFKKEAELDVNEELDKKYAGLLEKKWTSVIRLQKKVMELESKLNEAKEEFTSGGPLGQKRDPKEWIPRPPEKYALSGHRSPVTRVIFHPVFSVMVSASEDATIKVWDYETGDFERTLKGHTDSVQDISFDHSGKLLASCSADMTIKLWDFQGFECIRTMHGHDHNVSSVAIMPNGDHIVSASRDKTIKMWEVQTGYCVKTFTGHREWVRMVRPNQDGTLIASCSNDQTVRVWVVATKECKAELREHEHVVECISWAPESSYSSISEATGSETKKSGKPGPFLLSGSRDKTIKMWDVSTGMCLMTLVGHDNWVRGVLFHSGGKFILSCADDKTLRVWDYKNKRCMKTLNAHEHFVTSLDFHKTAPYVVTGSVDQTVKVWECR [PAFAH1B1]	55.8 °C	55.5 °C	-0.149	1.3	-0.762	-0.211
MVMEKPSPLLVGREFVRQYYTLLNKAPEYLHRFYGRNSSYVHGGVDASGKPQEAVYGQNDIHHKVLSLNFSECHTKIRHVDAHATLSDGVVVQVMGLLSNSGQPERKFMQTFVLAPEGSVPNKFYVHNDMFRYEDEVFGDSEPELDEESEDEVEEEQEERQPSPEPVQENANSGYYEAHPVTNGIEEPLEESSHEPEPEPESETKTEELKPQVEEKNLEELEEKSTTPPPAEPVSLPQEPPKAFSWASVTSKNLPPSGTVSSSGIPPHVKAPVSQPRVEAKPEVQSQPPRVREQRPRERPGFPPRGPRPGRGDMEQNDSDNRRIIRYPDSHQLFVGNLPHDIDENELKEFFMSFGNVVELRINTKGVGGKLPNFGFVVFDDSEPVQRILIAKPIMFRGEVRLNVEEKKTRAARERETRGGGDDRRDIRRNDRGPGGPRGIVGGGMMRDRDGRGPPPRGGMAQKLGSGRGTGQMEGRFTGQRR [G3BP2]	51.7 °C	50.4 °C	0.158	-0.995	-2.86	-0.124
MVPGEENQLVPKEDVFWRCRQNIFDEMKKKFLQIENAAEEPRVLCIIQDTTNSKTVNERITLNLPASTPVRKLFEDVANKVGYINGTFDLVWGNGINTADMAPLDHTSDKSLLDANFEPGKKNFLHLTDKDGEQPQILLEDSSAGEDSVHDRFIGPLPREGSGGSTSDYVSQSYSYSSILNKSETGYVGLVNQAMTCYLNSLLQTLFMTPEFRNALYKWEFEESEEDPVTSIPYQLQRLFVLLQTSKKRAIETTDVTRSFGWDSSEAWQQHDVQELCRVMFDALEQKWKQTEQADLINELYQGKLKDYVRCLECGYEGWRIDTYLDIPLVIRPYGSSQAFASVEEALHAFIQPEILDGPNQYFCERCKKKCDARKGLRFLHFPYLLTLQLKRFDFDYTTMHRIKLNDRMTFPEELDMSTFIDVEDEKSPQTESCTDSGAENEGSCHSDQMSNDFSNDDGVDEGICLETNSGTEKISKSGLEKNSLIYELFSVMVHSGSAAGGHYYACIKSFSDEQWYSFNDQHVSRITQEDIKKTHGGSSGSRGYYSSAFASSTNAYMLIYRLKDPARNAKFLEVDEYPEHIKNLVQKERELEEQEKRQREIERNTCKIKLFCLHPTKQVMMENKLEVHKDKTLKEAVEMAYKMMDLEEVIPLDCCRLVKYDEFHDYLERSYEGEEDTPMGLLLGGVKSTYMFDLLLETRKPDQVFQSYKPGEVMVKVHVVDLKAESVAAPITVRAYLNQTVTEFKQLISKAIHLPAETMRIVLERCYNDLRLLSVSSKTLKAEGFFRSNKVFVESSETLDYQMAFADSHLWKLLDRHANTIRLFVLLPEQSPVSYSKRTAYQKAGGDSGNVDDDCERVKGPVGSLKSVEAILEESTEKLKSLSLQQQQDGDNGDSSKSTETSDFENIESPLNERDSSASVDNRELEQHIQTSDPENFQSEERSDSDVNNDRSTSSVDSDILSSSHSSDTLCNADNAQIPLANGLDSHSITSSRRTKANEGKKETWDTAEEDSGTDSEYDESGKSRGEMQYMYFKAEPYAADEGSGEGHKWLMVHVDKRITLAAFKQHLEPFVGVLSSHFKVFRVYASNQEFESVRLNETLSSFSDDNKITIRLGRALKKGEYRVKVYQLLVNEQEPCKFLLDAVFAKGMTVRQSKEELIPQLREQCGLELSIDRFRLRKKTWKNPGTVFLDYHIYEEDINISSNWEVFLEVLDGVEKMKSMSQLAVLSRRWKPSEMKLDPFQEVVLESSSVDELREKLSEISGIPLDDIEFAKGRGTFPCDISVLDIHQDLDWNPKVSTLNVWPLYICDDGAVIFYRDKTEELMELTDEQRNELMKKESSRLQKTGHRVTYSPRKEKALKIYLDGAPNKDLTQD [USP47]	49.6 °C	49.7 °C	-0.168	0.111	0.427	-0.111
MVQLRPRASRAPASAEAMVDEGQLASEEEEAEHGLLLGQPSSGAAAEPLEEDEEGDDEFDDEAPEELTFASAQAEAREEERRVRETVRRDKTLLKEKRKRREELFIEQKKRKLLPDTILEKLTTASQTNIKKSPGKVKEVNLQKKNEDCEKGNDSKKVKVQKVQSVSQNKSYLAVRLKDQDLRDSRQQAAQAFIHNSLYGPGTNRTTVNKFLSLANKRLPVKRAAVQFLNNAWGIQKKQNAKRFKRRWMVRKMKTKK [NOL7]	56.9 °C	54 °C	0.763	-0.722	-4.23	-1.02
